In patent US6835807B1, “Drug complex and drug delivery system” (Daiichi Pharmaceuticals Co., Ltd., priority 1998, dated 2004):
Marks after values point to notes of the source that are not given here.

Experiments:
[1] = Release of the drug compound from the drug complex in Meth A homogenate (Example 2); assay type: in vitro ADME, murine; details: for released amount of the drug (DX-8951), percentage of the drug in the drug complex used: 37° C., 378 μg/ml, after 20 hours
Description: (§1) The drug complex obtained in Example 1 was dissolved in a Meth A (murine fibrosarcoma Meth A) homogenate or a buffer at 37° C. (378 μg/ml). After 20 hours, released DX-8951 was determined. The compound wherein the spacer and DX-8951 were bound to each other without p-aminobenzyloxycarbonyl group was prepared and used as a comparative compound. The released amount of the drug is expressed in percentage of the released amount of the drug to the amount of the drug in the drug complex used.

[2] = Release of the drug compound from the drug complex in buffer (Example 2); assay type: physicochemical; details: for released amount of the drug (DX-8951), percentage of the drug in the drug complex used: 37° C., 378 μg/ml, after 20 hours
Description: as §1

[3] = Release of the drug compound from the drug complex in mouse plasma (Example 2); assay type: in vitro ADME; details: 37° C., 378 μg/ml, after 20 hours
[4] = system: Meth A tumor-bearing mice; assay: Maximum tolerated dose (MTD) of the drug complex of Example 1 (Example 3); assay type: in vivo, BALB/c mice; details: for N, mice died/mice used / BWLmax, maximum body-weight reduction rate / day when the maximum body-weight reduction was observed: single administration on the 20th day
Description: Meth A cells were transplanted into BALB/c mice to prepare Meth A tumor-bearing mice. On the 20th day, single administration of the drug complex of Example 1 was carried out. After the administration, measurement of the body weight and observation of toxic death were made with time and the maximum body-weight reduction rate and mortality were calculated, which are shown in Table 2. The dose is expressed in terms of the weight of anhydrous free base of DX-8951.

[5] = system: Meth A cells (murine fibrosarcoma Meth A); assay: Antineoplastic activity of the drug complex of Example 1 (Example 4); assay type: in vivo, BALB/c mice; details: for BWLmax, maximum body-weight reduction rate / N, mice died/mice used / IR, diminution rate of the tumor / Average tumor weight / day when the maximum body-weight reduction was observed: administered on the 7th day; for IR, diminution rate of the tumor: 21th day; for Average tumor weight: tumor weighed on the 21th day
Description: (§2) Meth A cells (murine fibrosarcoma Meth A) were transplanted into BALB/c mice to prepare Meth A tumor-bearing mice. On the 7th day after the transplantation, the drug complex of Example 1 was administered. The weight of the tumor was measured on the 21th day to evaluate the inhibitory activity on the tumor and the toxicity. In the table, * represents significance in Dunnet's test (*** P<0.001, ** P<0.01), the dose is expressed in terms of the weight of anhydrous free base of DX-8951, and IR represents the diminution rate of the tumor.

Meth A cells = assay: Antineoplastic activity of the complexes of Examples 1, 5 and 6 (Example 10); assay type: in vivo, BALB/c mice; details: singly administered on the 7th day; for IR, diminution rate of the tumor: 21th day; for Average tumor weight: tumor weighed on the 21th day
Description: as §2, with “cells” for “cells (murine fibrosarcoma Meth A)”, “complexes shown in Examples 1, 5 and 6 were singly administered, respectively.” for “complex of Example 1 was administered.”, “p<0.001,” for “P<0.001,”, “P<0.01, * P<0.05),” for “P<0.01),”

What does the source list for “Carboxymethyldextran polyalcohol-Gly-Gly-Phe-Gly-NH-p-C6H4—CH2—O—CO-DX-8951 [Example 1]”?
released amount of the drug (DX-8951), percentage of the drug in the drug complex used ([1]; Meth A homogenate (pH 4.5)): 37.7%; released amount of the drug (DX-8951), percentage of the drug in the drug complex used ([1]; Meth A homogenate (pH 5.5)): 38.1%; released amount of the drug (DX-8951), percentage of the drug in the drug complex used ([1]; Meth A homogenate (pH 6.5)): 4.25%; releasing rate of DX-8951 relative to the drug complex obtained in Example 5 ([1]; tables in Examples 2 and 8): about 113; release of the drug in words ([1]; weakly acidic homogenate): rapidly released; released amount of the drug (DX-8951), percentage of the drug in the drug complex used ([2]; Buffer (pH 4.5)): 0.190%; released amount of the drug (DX-8951), percentage of the drug in the drug complex used ([2]; Buffer (pH 5.5)): 0.178%; released amount of the drug (DX-8951), percentage of the drug in the drug complex used ([2]; Buffer (pH 6.5)): 0.171%; released amount of the drug (DX-8951), percentage of the drug in the drug complex used ([2]; Buffer (pH 7.5)): 0.138%; release of the drug in words ([2]; buffer): hardly released; released amount of the drug (DX-8951), percentage of the drug in the drug complex used [3]: 0.186%; N, mice died/mice used ([4]; 0.156 mg/kg): 0/2; BWLmax, maximum body-weight reduction rate ([4]; 0.156 mg/kg, <0 = no reduction observed): <0%; N, mice died/mice used ([4]; 0.625 mg/kg): 0/2; BWLmax, maximum body-weight reduction rate ([4]; 0.625 mg/kg, <0 = no reduction observed): <0%; toxic death in words ([4]; 10 mg/kg): toxic death of all the cases; BWLmax, maximum body-weight reduction rate ([4]; 10 mg/kg): 32.8%; N, mice died/mice used ([4]; 10 mg/kg): 2/2; day when the maximum body-weight reduction was observed ([4]; 10 mg/kg): 26 days; BWLmax, maximum body-weight reduction rate ([4]; 30 mg/kg (as DX-8951 anhydrous free base)): 17.9%; N, mice died/mice used ([4]; 30 mg/kg): 2/2; day when the maximum body-weight reduction was observed ([4]; 30 mg/kg): 22 days; N, mice died/mice used ([4]; […]): 0/2; BWLmax, maximum body-weight reduction rate ([5]; 0.625 mg/kg): <0%; N, mice died/mice used ([5]; 0.625 mg/kg): 0/6; IR, diminution rate of the tumor ([5]; 0.625 mg/kg): 46%; Average tumor weight ([5]; 0.625 mg/kg): 1.247 ± 0.280** g; BWLmax, maximum body-weight reduction rate ([5]; 1.25 mg/kg): 0.3%; N, mice died/mice used ([5]; 1.25 mg/kg): 0/6; day when the maximum body-weight reduction was observed ([5]; 1.25 mg/kg): 8 days; IR, diminution rate of the tumor ([5]; 1.25 mg/kg): 74%; Average tumor weight ([5]; 1.25 mg/kg): 0.610 ± 0.180*** g; BWLmax, maximum body-weight reduction rate ([5]; 5 mg/kg): 2.9%; N, mice died/mice used ([5]; 5 mg/kg): 0/6; day when the maximum body-weight reduction was observed ([5]; 5 mg/kg): 13 days; IR, diminution rate of the tumor ([5]; 5 mg/kg): 99%; Average tumor weight ([5]; 5 mg/kg): 0.019 ± 0.004*** g; BWLmax, maximum body-weight reduction rate ([5]; 7.5 mg/kg): 24.8%; N, mice died/mice used ([5]; 7.5 mg/kg): 2/6; day when the maximum body-weight reduction was observed ([5]; 7.5 mg/kg): 15 days; IR, diminution rate of the tumor ([5]; 7.5 mg/kg): 100%; Average tumor weight ([5]; 7.5 mg/kg): 0.008 ± 0.002*** g; effect on tumor weight in words ([5]; 0.625 to 7.5 mg/kg): apparently diminished tumor weight dose-dependently; N, mice died/mice used ([5]; […]): 0/6; BWLmax, maximum body-weight reduction rate (Meth A cells; 0.625 mg/kg): <0%; N, mice died/mice used (Meth A cells; 0.625 mg/kg): 0/6; IR, diminution rate of the tumor (Meth A cells; 0.625 mg/kg): 43%; Average tumor weight (Meth A cells; 0.625 mg/kg): 1.489 ± 0.215** g; BWLmax, maximum body-weight reduction rate (Meth A cells; 1.25 mg/kg): <0%; N, mice died/mice used (Meth A cells; 1.25 mg/kg): 0/6; IR, diminution rate of the tumor (Meth A cells; 1.25 mg/kg): 71%; Average tumor weight (Meth A cells; 1.25 mg/kg): 0.775 ± 0.207*** g; BWLmax, maximum body-weight reduction rate (Meth A cells; 5 mg/kg): 4.0%; N, mice died/mice used (Meth A cells; 5 mg/kg): 0/6; day when the maximum body-weight reduction was observed (Meth A cells; 5 mg/kg): 13 days; IR, diminution rate of the tumor (Meth A cells; 5 mg/kg): 100%; Average tumor weight (Meth A cells; 5 mg/kg): 0.004 ± 0.001*** g; BWLmax, maximum body-weight reduction rate (Meth A cells; 7.5 mg/kg): 26.1%; N, mice died/mice used (Meth A cells; 7.5 mg/kg): 2/6; day when the maximum body-weight reduction was observed (Meth A cells; 7.5 mg/kg): 16 days; IR, diminution rate of the tumor (Meth A cells; 7.5 mg/kg): 100%; Average tumor weight (Meth A cells; 7.5 mg/kg): 0.005 ± 0.003*** g; N, mice died/mice used (Meth A cells; […]): 0/6
